Measured values: the DeepSol protein solubility set

experiment: soluble on expression in E. coli; label from the status in PepcDB or PDB records

Soluble on expression in E. coli, not soluble:
MGSDKIHHHHHHMEVEITITVRKVRIPEDVAVLEIFGQYDKRARYLKKLFNVEFAVRDSEILIKGMDEKSVDAAHRVLDEIISITRDGHLLDWTEFEYLVERVSNSESVKEVYSNNSKGLIIGKKVKPKTLGQKKYLEAVEKNDVVFVIGPAGTGKTYLAVAVALDYLKMGKVNRIILTRPAVEAGEKLGYLPGDLSEKVEPYLRPLYDAIIDITSPDKFNSYRERGIIEIVPLAYMRGRTLNNSFIILDEAQNTTYQQMKMFLTRLGFNSKAVITGDITQVDIEKEKSGLIECQKILEGISGIEFVYLNESDVVRHPLVKKIIKAYEEYERSRKS
MGSDKIHHHHHHMEVERISGLKFHKKQDVAIVGAGMTTFKRRLNETGRELSYLAVKQALEEAGLTIDDIEMVVMGSAPDAFDGFHMKGEYLLDGSGGSNRPYMRVFVGGGTGVFAPIAGYWHVASGLADVCLVVCEEKMSSVHPHPQSAFKYIWDPILDRPLNPNLIWIFALEMRRYMHVHNIKHEDIALVSVKNKANALDHPCAQVAEKITVEDVLNSEPMALPVRRLDVSPPSDGAAALIMVAPHIARQLTDNPVWVTGVGWALDTTWWTNRDLYFPRYVAEAAKMAYRMAHITDPRKEIDVAEPYDPFDYKELHHMEGLGLAKKGEAPILTREGVTQRDGDLPTCPSGGLLGVGNPIAATMGVKACEIYWQLAYRAGKRQVAKEVTTGVCQAWGDLMQVGTVMVMSNKR
MGSDKIHHHHHHMFDRYEAGETAVLVHIDFSDEERREDLVELQLLVESAGARSVGVITGSRRSPDRKFFIGSGKAEELAALVAATEANVVIFNHALSPAQERNLEQVCQCRVLDRTSLILDIFAQRARTHEGKLQVELAQLRHMSTRLVRGWTHLERQKGGIGLRGPGETQLETDRRLLRGRIKNINKRLERVDKQREQSRRARKRSDMPTVSLVGYTNAGKSTLFNALTSSDVYAADQLFATLDPTLRKLDLPDGAVILADTVGFIRHLPHDLVAAFKATLQETRQAELLLHIVDCADENMADNFEQVQSVLKEIDADEVMQLIVCNKIDLLEDVTPRIEYDDRGKPVRVWVSAHKRLGFDLLLKAITELIGEVIHEFTLRIPATAGHYLGQFYRLDAIQQKEYDDLGNCILSVRLSDADWRRLAKQSQGELETFIFDPSIEKAVC
MGSDKIHHHHHHMFDWNDVRFFLALQRNGKLLGAARQMGTTHATVARHIAALEKVLGQPLFVQQADGYSLTAAGRQLLPLAESLENTASQMLDSGSKGHAEVSGVVRLGAPEGLGALFLARHMPALMARYPELEIDLVAVPRFVSVTSREVDIAIALERPQANMVVTRKLTDYCLGLYATQAYLAAHPPIREREDLNGHAILAYVDDLLFTRELMYHHGLCRHPSMPLRSTSVVAQREAALADGGIAVLPYYTTYDDPRLTQILPELRIIRSYWISARSNIRRTLRYRVVWDYVVELCQNMQWLLLQEEQNRSIETA
MGSDKIHHHHHHMFFETTFHDATEQEASLPGWRQEYRQVSTGGYDGRTMAILLPGVEILRETISVGTEQMFSAPEGSMIFYYYPKRDRSELVRGEKATGVSGFALNWTNRIGFMDADSDLLMLVLRRDAVADEDRSRIAELVEPPLENAAFLADWLLSLLGGARQQSHPCAWGKFDGVLADVITDRFELLFQKSLVRQTPHIAQTEQIYRKIRDRIFDAPDMPHSVKSLSRDLGVSAFNLRASCQSFTQIPLDRILMMLRLNGARRDLLHARCSPRKVSDIAMDWGFFHWSRFALRYKSLFGETPSQTLKG
MGSDKIHHHHHHMFLRNMWYVAAFSADVKPGKCLARTFLNEPVVLFRTASGSLGALIDRCSHRAMPLSEGHVDGDIIRCPYHGLEFNAAGVCAHIPGQERIPAAANVRSYPVSERDGLIWIWMGEPEKADLRSIMSNPEHRDPGWSWRPYYMHVNSNWQLLVDNILDLTHVAYIHANTIGGNPQTHFNADMSVQFDGEKVTLLRKMPNSVPPKTYVAAGGFKGNVDRWQMVEYRPCGGNVLRVNAGACEVGTGAYEGRRDNGFTLLNVHGVTPETETTTHYIWTICTDAPRESGVPDMLFDQFYETICEDERALEAQQRRINDMPDMRFVGIASDGAVSRARLLLERLHENETAVTS
MGSDKIHHHHHHMFMVKITILSPEGRSCSVWSLKNEIEKLGAKCDIFLLSSPENLMSHDFKLETDLIHSRCGIGDYFDRLTLYSWQFINALEVEGCRFINPIKTLYLTSDKFKCIKLLAKNKIKTPKTALIRDYEDAVKFIEKYNLRFPVVIKNSFSKCGLKVFMARNYDELKQLTKNAIWEGKLIQEFIDFKENDLYRDMRILVVDGEVVGGYRRVSRDFRTNLYLGNVVEKLNIDEELEELALKCADLSEAVILGVDILPTKDNYYVIELNSSPGTKGFRDIGINADKKIAEALVRYAKS
